Among the data in patent publication US20200087363A1 (IMMATICS BIOTECHNOLOGIES, published 2020) are peptide exchange yield values, retold here.

B1: LEWQHPSSW (peptide)
peptide: LEWQHPSSW
B2: SEFDLEQVW (peptide)
peptide: SEFDLEQVW
B3: AEMKFYVVI (peptide)
peptide: AEMKFYVVI
B4: DEIRVFGY (peptide)
peptide: DEIRVFGY
B5: SEVLLTSISTF (peptide)
peptide: SEVLLTSISTF
B6: GELAPSHGL (peptide)
peptide: GELAPSHGL
B7: SENKKWVEF (peptide)
peptide: SENKKWVEF
B8: IEQGRVVLW (peptide)
peptide: IEQGRVVLW
B9: EEMLENVSL (peptide)
peptide: EEMLENVSL
B10: VEVIPEGAML (peptide)
peptide: VEVIPEGAML
B11: AELMDKPLTF (peptide)
peptide: AELMDKPLTF
B12: SETPTLQGL (peptide)
peptide: SETPTLQGL
B13: RELVHMINW (peptide)
peptide: RELVHMINW
B14: AETEEGIYW (peptide)
peptide: AETEEGIYW
B15: EEGRVYVY (peptide)
peptide: EEGRVYVY
B16: TEAVLNRY (peptide)
peptide: TEAVLNRY
B17: AEYQAAILHL (peptide)
peptide: AEYQAAILHL
B18: LEQASRIWSW (peptide)
peptide: LEQASRIWSW
B19: NEVKEIKGY (peptide)
peptide: NEVKEIKGY
B20: QEDELVKIRKY (peptide)
peptide: QEDELVKIRKY
B21: LEWQNSSSM (peptide)
peptide: LEWQNSSSM
B22: HELESENKKW (peptide)
peptide: HELESENKKW
B23: TEIMEKTTL (peptide)
peptide: TEIMEKTTL
B24: LENPHVQSV (peptide)
peptide: LENPHVQSV
B25: SETSTGTSV (peptide)
peptide: SETSTGTSV
B26: EEIENLQAQF (peptide)
peptide: EEIENLQAQF
B27: QEVNISLHY (peptide)
peptide: QEVNISLHY

The test deals with T1, HLA-B*44:05 (human).
T1 construct: also called peptide-receptive MHC class I molecule
Description: UV peptide exchange, anti-b2m ELISA. The gist of the method:
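Peptide-receptive HLA-B*44:05 monomers after UV-induced exchange were diluted 100-fold and captured on streptavidin-coated plates for 1 h at 37 °C. Bound complexes were detected with 2 µg/ml HRP-anti-β2m (1 h, 37 °C) and TMB, read at 450 nm. β2m signal reflects peptide-stabilized complex yield.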
For orientation: An ELISA detects its analyte on a solid surface through an enzyme-linked reagent.
Regarding B1, the peptide exchange yield is more than 75%.
The figure for B2 is more than 75%; for B3 it is 50 to 75%.
In the case of B4 it was 20 to 50%; in that of B5, more than 75%.
The figure for B6 is 50 to 75%; for B7 it is 20 to 50%.
Turning to B8, the peptide exchange yield is more than 75%.
In the case of B9 it was 50 to 75%; in that of B10, 50 to 75%; in that of B11, 50 to 75%.
In the case of B12 it was 50 to 75%; in that of B13, more than 75%.
For B14, the peptide exchange yield is more than 75%.
Molecule B15 showed a peptide exchange yield of 20 to 50%.
In the case of B16 it was 20 to 50%; in that of B17, 50 to 75%; in that of B18, more than 75%.
The figure for B19 is 50 to 75%.
In the case of B20 it was 50 to 75%; in that of B21, 50 to 75%; in that of B22, 50 to 75%.
As to B23, the peptide exchange yield lay in the range of 50 to 75%.
With B24, the peptide exchange yield was 50 to 75%.
In the case of B25 it was 20 to 50%.
The figure for B26 is 20 to 50%; for B27 it is more than 75%.
